Data taken from patent US20250339531A1, “DUX4 POLYPEPTIDES AND NUCLEIC ACIDS FOR TREATING INFLAMMATORY AND AUTOIMMUNE CONDITIONS” (Fred Hutchinson Cancer Center, priority 2021, published 2025).

Test system: proteins that co-immunoprecipitated with DUX4-CTD constructs expressed in MB135 myoblasts
Assay: LC-MS of proteins co-immunoprecipitated with DUX4-CTD (Table 1) and western validation
Assay type: binding, human
Design: key to 4. mL1dL2 + Dox + IFNG / 4. + IFNG mix / 4. longCTD + Dox + IFNG / 3. + IFNg + Dox longCTD / 3. + Dox longCTD / 3. + IFNG longCTD: peptide-spectrum matches (PSMs) per protein
Settings: for 4. longCTD + Dox + IFNG: LC-MS counts of the listed protein co-immunoprecipitated with DUX4-CTD bait longCTD, experiment 4, Dox + IFNG; for 3. + IFNg + Dox longCTD: bait longCTD, experiment 3, IFNg + Dox; for SUM of PSMS: sum over all samples
In short: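 Two independent experiments compared uninduced, doxycycline and doxycycline+IFNG MB135iDUX4-CTD (plus MB135iDUX4mL1dL2) myoblasts. Anti-FLAG pulldowns (3 h, 4 °C) were eluted in LDS buffer for western validation or with FLAG peptide for trypsin digestion and Orbitrap LC-MS; hits needed ≥2 PSMs in both experiments, ranked by total PSMs.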

Row | Molecule | 4. longCTD + Dox + IFNG | 3. + IFNg + Dox longCTD | SUM of PSMS
1 | Q16576 (protein, UniProt Q16576 1-425, looked up, full-length) MASKEMFEDTVEERVINEEYKIWKKNTPFLYDLVMTHALQWPSLTVQWLPEVTKPEGKDYALHWLVLGTHTSDEQNHLVVARVHIPNDDAQFDASHCDSDKGEFGGFGSVTGKIECEIKINHEGEVNRARYMPQNPHIIATKTPSSDVLVFDYTKHPAKPDPSGECNPDLRLRGHQKEGYGLSWNSNLSGHLLSASDDHTVCLWDINAGPKEGKIVDAKAIFTGHSAVVEDVAWHLLHESLFGSVADDQKLMIWDTRSNTTSKPSHLVDAHTAEVNCLSFNPYSEFILATGSADKTVALWDLRNLKLKLHTFESHKDEIFQVHWSPHNETILASSGTDRRLNVWDLSKIGEEQSAEDAEDGPPELLFIHGGHTAKISDFSWNPNEPWVICSVSEDNIMQIWQMAENIYNDEESDVTTSELEGQGS | 5 | 4 | 25
2 | Q9NQC3 (protein, UniProt Q9NQC3 1-1192, looked up, full-length) MEDLDQSPLVSSSDSPPRPQPAFKYQFVREPEDEEEEEEEEEEDEDEDLEELEVLERKPAAGLSAAPVPTAPAAGAPLMDFGNDFVPPAPRGPLPAAPPVAPERQPSWDPSPVSSTVPAPSPLSAAAVSPSKLPEDDEPPARPPPPPPASVSPQAEPVWTPPAPAPAAPPSTPAAPKRRGSSGSVDETLFALPAASEPVIRSSAENMDLKEQPGNTISAGQEDFPSVLLETAASLPSLSPLSAASFKEHEYLGNLSTVLPTEGTLQENVSEASKEVSEKAKTLLIDRDLTEFSELEYSEMGSSFSVSPKAESAVIVANPREEIIVKNKDEEEKLVSNNILHNQQELPTALTKLVKEDEVVSSEKAKDSFNEKRVAVEAPMREEYADFKPFERVWEVKDSKEDSDMLAAGGKIESNLESKVDKKCFADSLEQTNHEKDSESSNDDTSFPSTPEGIKDRSGAYITCAPFNPAATESIATNIFPLLGDPTSENKTDEKKIEEKKAQIVTEKNTSTKTSNPFLVAAQDSETDYVTTDNLTKVTEEVVANMPEGLTPDLVQEACESELNEVTGTKIAYETKMDLVQTSEVMQESLYPAAQLCPSFEESEATPSPVLPDIVMEAPLNSAVPSAGASVIQPSSSPLEASSVNYESIKHEPENPPPYEEAMSVSLKKVSGIKEEIKEPENINAALQETEAPYISIACDLIKETKLSAEPAPDFSDYSEMAKVEQPVPDHSELVEDSSPDSEPVDLFSDDSIPDVPQKQDETVMLVKESLTETSFESMIEYENKEKLSALPPEGGKPYLESFKLSLDNTKDTLLPDEVSTLSKKEKIPLQMEELSTAVYSNDDLFISKEAQIRETETFSDSSPIEIIDEFPTLISSKTDSFSKLAREYTDLEVSHKSEIANAPDGAGSLPCTELPHDLSLKNIQPKVEEKISFSDDFSKNGSATSKVLLLPPDVSALATQAEIESIVKPKVLVKEAEKKLPSDTEKEDRSPSAIFSAELSKTSVVDLLYWRDIKKTGVVFGASLFLLLSLTVFSIVSVTAYIALALLSVTISFRIYKGVIQAIQKSDEGHPFRAYLESEVAISEELVQKYSNSALGHVNCTIKELRRLFLVDDLVDSLKFAVLMWVFTYVGALFNGLTLLILALISLFSVPVIYERHQAQIDHYLGLANKNVKDAMAKIQAKIPGLKRKAE | 6 | 7 | 23
3 | O14929 (protein, UniProt O14929 1-419, looked up, full-length) MAGFGAMEKFLVEYKSAVEKKLAEYKCNTNTAIELKLVRFPEDLENDIRTFFPEYTHQLFGDDETAFGYKGLKILLYYIAGSLSTMFRVEYASKVDENFDCVEADDVEGKIRQIIPPGFCTNTNDFLSLLEKEVDFKPFGTLLHTYSVLSPTGGENFTFQIYKADMTCRGFREYHERLQTFLMWFIETASFIDVDDERWHYFLVFEKYNKDGATLFATVGYMTVYNYYVYPDKTRPRVSQMLILTPFQGQGHGAQLLETVHRYYTEFPTVLDITAEDPSKSYVKLRDFVLVKLCQDLPCFSREKLMQGFNEDMVIEAQQKFKINKQHARRVYEILRLLVTDMSDAEQYRSYRLDIKRRLISPYKKKQRDLAKMRKCLRPEELTNQMNQIEISMQHEQLEESFQELVEDYRRVIERLAQE | 9 | 3 | 23
